Usually stoichiometry N stands for a count of units in the complex or per binding partner.

Data set [1] concerns the molecule itself. The data set is described as follows: native MS; native ion mobility MS with nESI, sample in 250 mM ammonium acetate pH 6.8, 5–20 μM UVR8, in the absence of UV-B light.
Data set [2] concerns the target T1, full-length UVR8 (UV … LOCUS8) (Arabidopsis thaliana), Q9FN03.
T1 chain: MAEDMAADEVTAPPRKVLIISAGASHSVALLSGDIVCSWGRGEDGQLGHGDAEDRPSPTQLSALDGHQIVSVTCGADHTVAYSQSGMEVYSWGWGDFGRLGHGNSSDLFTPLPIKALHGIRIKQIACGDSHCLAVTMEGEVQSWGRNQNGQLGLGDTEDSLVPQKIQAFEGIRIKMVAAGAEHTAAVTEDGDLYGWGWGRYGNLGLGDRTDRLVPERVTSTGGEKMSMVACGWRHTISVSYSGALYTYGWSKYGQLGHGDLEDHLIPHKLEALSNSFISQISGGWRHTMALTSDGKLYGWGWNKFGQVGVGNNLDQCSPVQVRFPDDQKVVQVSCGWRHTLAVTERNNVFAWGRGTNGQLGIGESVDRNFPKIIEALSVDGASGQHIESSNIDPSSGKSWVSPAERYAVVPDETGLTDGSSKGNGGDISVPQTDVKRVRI
The data set is described as above. Conditions: remark: other sources report otherwise.

B1: UVR8 core domain (residues 12–381, UVR8^12–381) (domain or fragment, Arabidopsis thaliana, UniProt Q9FN03 12-381, looked up)
chain: APPRKVLIISAGASHSVALLSGDIVCSWGRGEDGQLGHGDAEDRPSPTQLSALDGHQIVSVTCGADHTVAYSQSGMEVYSWGWGDFGRLGHGNSSDLFTPLPIKALHGIRIKQIACGDSHCLAVTMEGEVQSWGRNQNGQLGLGDTEDSLVPQKIQAFEGIRIKMVAAGAEHTAAVTEDGDLYGWGWGRYGNLGLGDRTDRLVPERVTSTGGEKMSMVACGWRHTISVSYSGALYTYGWSKYGQLGHGDLEDHLIPHKLEALSNSFISQISGGWRHTMALTSDGKLYGWGWNKFGQVGVGNNLDQCSPVQVRFPDDQKVVQVSCGWRHTLAVTERNNVFAWGRGTNGQLGIGESVDRNFPKIIEALSVDG
notes: Homodimer in the dark, monomer after UV-B; also called truncated UVR8; source: E. coli Rosetta 2 (DE3) pLysS, purified (Ni-NTA, Strep-Tactin XT, cleaved from the resin with SUMO protease); not shown: 7xHis, N-terminal, cleaved; Strep II, N-terminal, cleaved; SUMO, N-terminal, cleaved
Turning to B1, the “stoichiometry N” value in data set [1] stood at 2.

B2: full-length UVR8 (UV … LOCUS8), Q9FN03 1-440 (natural protein)
chain: T1 chain
In the case of B2, the stoichiometry N in data set [2] came to 2.

Values taken from publication PMC6347689, “Native mass spectrometry reveals the conformational diversity of the UVR8 photoreceptor” (Proceedings of the National Academy of Sciences of the …, 2019).
